Assay [1] concerns the target T1, Aβ1-40 (human, UniProt P05067 672-711).
T1 construct: domain: Aβ1-40; Used as a soluble peptide (ELISA), as fibrils (fAβ40 pulldown) and as expressed in TgBRI-Aβ40, Tg2576 and CRND8 mice (plasma complexes); also called Aβ40; human Aβ40
As to the kind of experiment: pulldown of conditioned media of transfected 293T cells with fibrillar Aβ40, western blot with anti-His. On the procedure: (§1) Fibrillar Aβ pulldown assays. One mL of conditioned media from 293T HEK cells transiently transfected with pSecTag palsmids encoding the anti-Aβ scFv was incubated with 10 μg of fibrillar Aβ40 or Aβ42 (fAβ) at 4° C. for 1 hour. The fibrils were then spun down and resuspended in SDS-PAGE loading buffer. The presence of scFv was determined by western blot with rabbit anti-His (Bethyl). To determine the Aβ40 binding properties of scFv secreted into the media, capture ELISA was used with Aβ40 peptide as capture and anti-myc-HRP, 1:2000, as detection.
(§2) Prior to testing the effects of the scFv in vivo, the anti-Aβ scFvs expressed from 293T cells were characterized.
(Immunoblotting shows a protein as a band on a membrane.)

The target in assay [2] is T2, Aβ1-42 (human, UniProt P05067 672-713).
T2 construct: domain: Aβ1-42; also called Aβ42; fAβ42 (fibrillar form in the pulldown)
The experiment in a line: pulldown of conditioned media of transfected 293T cells with fibrillar Aβ42, western blot with anti-His. How it is done: as §1, §2

T1 sequence (P05067 672-711 limits assumed): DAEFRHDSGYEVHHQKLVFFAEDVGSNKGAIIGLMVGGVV
T2 sequence (P05067 672-713 limits assumed): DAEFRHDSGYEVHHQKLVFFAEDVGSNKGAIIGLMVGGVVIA

B1: scFv40.1 (scFv)
scFv: EVQLQQSGADLVKPGASVKLSCTASGFNIKATYMHWVRQRPEQGLEWIGRIDPANGDTKYDPKFQGKATLTVDTSSNTAYLQLSSLTSEDTAVYYCSTLYYREAYWGQGTLVTVSAGGGGSGGGSGGGGSDVVMTQTPLTLSVTIGQPASISCKSSQRLIYSDGKTYLNWLLQRPGQSPKRLIYLVSKLDSGVPDRFTGSGSGTDFTLKISRVEAEDLGVYYCWQGTHFPVTFGAGTKLELKR
notes: VH-linker-VL from mAb40.1; secreted from 293T HEK cells (pSecTag), detected by anti-His and anti-myc; Tested as conditioned medium
For B1, the binding result in assay [1] is on record as “binds”.

B2: scFv42.2 (scFv)
scFv: EVQLQQSGPELVKPGASGKISCKTSGYTFSENTMHWVKQSHGKSLEWIGGINPNTGATYYNQKFKGKATLTVDTSSSTAYLELRSLTSADSAVYYCVRNGLLTLGAMDYWGQGTSVTVSSGGGGSGGGGSGGGGSDVVMTQTPLSLPVSLGDQASISCRSSQSLVHSNGNTYLYWCLQKPGQSPKLLIYKVSSRFSGVPDRFSGSGSGTDFTLKISRVEAEDLGVYFCSQSTHAPLTFGAGTKLELKR
notes: VH-linker-VL from mAb42.2; secreted from 293T HEK cells (pSecTag), detected by anti-His and anti-myc; Tested as conditioned medium; also called anti-Aβ42 specific scFv42.2
In the case of B2, the values for the binding result in assay [1] and in assay [2] were “no binding” and “binds”, respectively.

Source of the values: US20100104577A1 (published 2010).
